In publication PMC6555819, “Comprehensive study of nuclear receptor DNA binding provides a revised framework for understanding receptor specificity”:

How the values were obtained:
THRa:RXRa = THRa:RXRa (Homo sapiens, UniProt P10827;P19793 full;full); experiment: no ligand; PBM; 90 nM : 90 nM RXRa; PBS pH 7.4, 2% milk, 0.02% Triton X-100, 1 mM DTT, BSA, 0.4 mg/ml salmon testes DNA; settings: tags: His kept;His cleaved; copies: 1;1; label: surface-attached array probe
RARg:RXRa = RARg:RXRa (Homo sapiens, UniProt P13631;P19793 full;full); experiment: no ligand; PBM; 270 nM : 90 nM RXRa; PBS pH 7.4, 2% milk, 0.02% Triton X-100, 1 mM DTT, BSA, 0.4 mg/ml salmon testes DNA; settings: tags: His kept;His cleaved; copies: 1;1; label: surface-attached array probe
Chain of RARg:RXRa (P13631 whole entry, chain 1 of 2): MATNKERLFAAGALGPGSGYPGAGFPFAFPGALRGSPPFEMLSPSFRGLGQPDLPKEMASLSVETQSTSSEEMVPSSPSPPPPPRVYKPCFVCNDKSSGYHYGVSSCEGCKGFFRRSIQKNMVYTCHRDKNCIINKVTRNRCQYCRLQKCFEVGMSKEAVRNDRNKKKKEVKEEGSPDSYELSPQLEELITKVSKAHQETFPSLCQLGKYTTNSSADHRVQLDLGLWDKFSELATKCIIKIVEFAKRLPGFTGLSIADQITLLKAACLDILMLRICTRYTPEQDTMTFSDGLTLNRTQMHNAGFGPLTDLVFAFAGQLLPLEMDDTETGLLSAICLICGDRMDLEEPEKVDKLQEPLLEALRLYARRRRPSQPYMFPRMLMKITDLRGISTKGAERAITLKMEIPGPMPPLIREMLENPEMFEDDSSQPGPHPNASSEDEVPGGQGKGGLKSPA
Chain of RARg:RXRa (P19793 whole entry, chain 2 of 2): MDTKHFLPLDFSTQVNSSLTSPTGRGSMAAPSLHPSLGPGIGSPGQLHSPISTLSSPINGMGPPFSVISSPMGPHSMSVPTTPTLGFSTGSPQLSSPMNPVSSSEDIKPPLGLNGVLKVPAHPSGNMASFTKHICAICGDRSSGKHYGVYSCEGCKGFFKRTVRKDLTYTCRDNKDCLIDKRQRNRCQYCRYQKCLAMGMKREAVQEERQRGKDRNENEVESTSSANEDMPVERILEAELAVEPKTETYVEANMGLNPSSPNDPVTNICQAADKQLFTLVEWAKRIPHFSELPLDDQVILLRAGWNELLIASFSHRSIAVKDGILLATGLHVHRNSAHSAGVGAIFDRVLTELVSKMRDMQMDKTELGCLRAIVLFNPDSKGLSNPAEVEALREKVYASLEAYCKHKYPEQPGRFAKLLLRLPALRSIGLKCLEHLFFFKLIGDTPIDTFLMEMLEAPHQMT
How it was run: (§1)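 The probes on custom Agilent 4×180K protein-binding microarrays were double-stranded, with 34-nt variable regions bearing direct-repeat seeds, single-nucleotide variants, half-site ablations and random human genomic background sequences. Incubation lasted 1 h with ligand-free nuclear receptor dimers in PBS pH 7.4, 2% milk, 0.02% Triton X-100, 1 mM DTT, 0.2 mg/mL BSA and 0.4 mg/ml salmon testes DNA. Antibodies against each partner (one per run) detected bound dimers, and fluorescence scans were regression-normalized. Binding z-scores take the random background probes as reference.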

RARb:RXRa = RARb:RXRa (Homo sapiens, UniProt P10826;P19793 full;full); experiment: as above; settings: tags: His kept;His cleaved; copies: 1;1; label: surface-attached array probe
Chain of RARb:RXRa (P10826 whole entry, chain 1 of 2): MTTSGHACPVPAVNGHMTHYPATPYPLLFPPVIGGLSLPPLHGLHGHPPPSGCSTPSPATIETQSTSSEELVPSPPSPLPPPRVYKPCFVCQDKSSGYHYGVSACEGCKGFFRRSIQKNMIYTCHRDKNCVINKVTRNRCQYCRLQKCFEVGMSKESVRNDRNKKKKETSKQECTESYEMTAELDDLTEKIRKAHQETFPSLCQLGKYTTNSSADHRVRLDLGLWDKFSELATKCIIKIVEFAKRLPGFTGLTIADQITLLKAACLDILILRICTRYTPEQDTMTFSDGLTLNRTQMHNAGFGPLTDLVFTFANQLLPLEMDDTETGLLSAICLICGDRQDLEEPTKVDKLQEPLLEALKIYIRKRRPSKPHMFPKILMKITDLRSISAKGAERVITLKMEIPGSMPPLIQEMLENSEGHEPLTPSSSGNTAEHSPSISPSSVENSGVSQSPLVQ
Chain of RARb:RXRa (P19793 whole entry, chain 2 of 2): as the sequence (P19793 whole entry, chain 2 of 2) above
How it was run: as §1

FXR:RXRa = FXR:RXRa (Homo sapiens, UniProt Q96RI1;P19793 full;full); experiment: as above; settings: tags: His kept;His cleaved; copies: 1;1; label: surface-attached array probe
Chain of FXR:RXRa (Q96RI1 whole entry, chain 1 of 2): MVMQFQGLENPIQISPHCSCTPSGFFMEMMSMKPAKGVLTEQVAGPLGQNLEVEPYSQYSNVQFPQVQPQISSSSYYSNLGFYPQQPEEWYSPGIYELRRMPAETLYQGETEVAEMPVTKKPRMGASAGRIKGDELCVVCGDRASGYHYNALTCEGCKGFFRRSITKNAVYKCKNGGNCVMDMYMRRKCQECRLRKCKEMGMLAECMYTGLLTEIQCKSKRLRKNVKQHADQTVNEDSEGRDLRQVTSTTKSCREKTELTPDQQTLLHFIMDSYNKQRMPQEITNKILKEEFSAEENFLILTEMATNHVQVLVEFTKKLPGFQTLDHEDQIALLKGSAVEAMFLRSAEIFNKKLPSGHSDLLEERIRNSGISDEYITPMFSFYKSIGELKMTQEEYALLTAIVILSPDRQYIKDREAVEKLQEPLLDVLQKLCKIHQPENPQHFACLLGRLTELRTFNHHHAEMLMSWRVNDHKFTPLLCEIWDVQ
Chain of FXR:RXRa (P19793 whole entry, chain 2 of 2): as the sequence (P19793 whole entry, chain 2 of 2) above
How it was run: as §1

PPARa:RXRa = PPARa:RXRa (Homo sapiens, UniProt Q07869;P19793 full;full); experiment: as above; settings: tags: GST kept;His cleaved; copies: 1;1; label: surface-attached array probe
Chain of PPARa:RXRa (Q07869 whole entry, chain 1 of 2): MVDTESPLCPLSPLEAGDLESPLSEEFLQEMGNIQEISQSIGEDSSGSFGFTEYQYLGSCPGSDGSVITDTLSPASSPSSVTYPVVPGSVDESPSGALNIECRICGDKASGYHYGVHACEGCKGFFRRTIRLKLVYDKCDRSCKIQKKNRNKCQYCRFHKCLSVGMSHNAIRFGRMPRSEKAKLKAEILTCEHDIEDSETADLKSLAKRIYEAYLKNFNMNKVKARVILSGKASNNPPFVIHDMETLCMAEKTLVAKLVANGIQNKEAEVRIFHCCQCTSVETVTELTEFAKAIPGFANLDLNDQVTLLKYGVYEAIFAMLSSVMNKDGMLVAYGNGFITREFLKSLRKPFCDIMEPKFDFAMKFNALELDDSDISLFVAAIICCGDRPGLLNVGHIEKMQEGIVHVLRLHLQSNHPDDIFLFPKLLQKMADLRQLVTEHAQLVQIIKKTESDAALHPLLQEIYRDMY
Chain of PPARa:RXRa (P19793 whole entry, chain 2 of 2): as the sequence (P19793 whole entry, chain 2 of 2) above
How it was run: as §1

Chain of THRa:RXRa (P10827 other isoform, or with tags, fused parts or gaps, chain 1 of 2): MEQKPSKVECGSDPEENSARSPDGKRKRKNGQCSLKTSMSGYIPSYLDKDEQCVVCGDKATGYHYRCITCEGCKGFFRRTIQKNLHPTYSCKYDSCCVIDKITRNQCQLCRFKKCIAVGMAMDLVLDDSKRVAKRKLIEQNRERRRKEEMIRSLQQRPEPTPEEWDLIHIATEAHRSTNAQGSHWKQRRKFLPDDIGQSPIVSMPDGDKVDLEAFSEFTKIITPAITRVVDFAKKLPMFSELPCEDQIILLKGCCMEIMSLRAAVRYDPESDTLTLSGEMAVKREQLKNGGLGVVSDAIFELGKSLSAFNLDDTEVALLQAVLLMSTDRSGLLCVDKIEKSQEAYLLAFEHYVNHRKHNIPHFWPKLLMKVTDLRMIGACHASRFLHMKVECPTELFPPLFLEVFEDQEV
Chain of THRa:RXRa (P19793 whole entry, chain 2 of 2): as the sequence (P19793 whole entry, chain 2 of 2) above

Binder | binding signal (THRa:RXRa) | also measured
NRC3_wobSeed18_DR0_C13G_o1 (dsDNA) DNA 1: GCGATACAGGGTGAAGGCCAGAGTACGCGTATTGATGCGATTGACAGCGTAGAATGAAGG DNA 2: CCTTCATTCTACGCTGTCAATCGCATCAATACGCGTACTCTGGCCTTCACCCTGTATCGC | 0.38 PBM z-score against 500 random probes | binding signal (RARg:RXRa): 0.44 PBM z-score against 500 random probes
NRC3_wobSeed97_DR4_A6C_o1 (dsDNA) DNA 1: GCCAACCTAGGTCACGAAAGGTCAAAGTCGAATGACGCGATTGACAGCGTAGAATGAAGG DNA 2: CCTTCATTCTACGCTGTCAATCGCGTCATTCGACTTTGACCTTTCGTGACCTAGGTTGGC | 5.6 PBM z-score against 500 random probes | binding signal (RARb:RXRa): 6.29 PBM z-score against 500 random probes
NRC3_wobSeed112_DR4_G11C_o1 (dsDNA) DNA 1: GCTAGCCTAGCTCAGATCGGGCCAGTATACGCTATAGCGATTGACAGCGTAGAATGAAGG DNA 2: CCTTCATTCTACGCTGTCAATCGCTATAGCGTATACTGGCCCGATCTGAGCTAGGCTAGC | -0.54 PBM z-score against 500 random probes | –
NRC3_random_hg19_228_o1 (dsDNA) DNA 1: GCCACCGTGTTAGCCAGGATGGTCTCGATCTCCTGAGCGATTGACAGCGTAGAATGAAGG DNA 2: CCTTCATTCTACGCTGTCAATCGCTCAGGAGATCGAGACCATCCTGGCTAACACGGTGGC | -1.6 PBM z-score against 500 random probes | binding signal (FXR:RXRa): -0.45 PBM z-score against 500 random probes
NRC3_random_hg19_8_o1 (dsDNA) DNA 1: GCGCTGAAACTGGATCCCTTCCTTACACCTTACACAGCGATTGACAGCGTAGAATGAAGG DNA 2: CCTTCATTCTACGCTGTCAATCGCTGTGTAAGGTGTAAGGAAGGGATCCAGTTTCAGCGC | -0.12 PBM z-score against 500 random probes | –
NRC3_wobSeed103_DR4_G21A_o1 (dsDNA) DNA 1: GCGCATATAGGTAATACAAGATGAAAGTCCGATTGTGCGATTGACAGCGTAGAATGAAGG DNA 2: CCTTCATTCTACGCTGTCAATCGCACAATCGGACTTTCATCTTGTATTACCTATATGCGC | 0.11 PBM z-score against 500 random probes | –
NRC3_random_hg19_242_o1 (dsDNA) DNA 1: GCCAGCAGAGAACCCAGTGGAACATGAGCCTATACAGCGATTGACAGCGTAGAATGAAGG DNA 2: CCTTCATTCTACGCTGTCAATCGCTGTATAGGCTCATGTTCCACTGGGTTCTCTGCTGGC | -0.39 PBM z-score against 500 random probes | –
NRC3_random_hg19_436_o1 (dsDNA) DNA 1: GCATAGTTTCCAGCTTCATCCATGTCTCTGCAAAGAGCGATTGACAGCGTAGAATGAAGG DNA 2: CCTTCATTCTACGCTGTCAATCGCTCTTTGCAGAGACATGGATGAAGCTGGAAACTATGC | 0.27 PBM z-score against 500 random probes | binding signal (PPARa:RXRa): -0.03 PBM z-score against 500 random probes
NRC3_wobSeed120_DR4_G20C_o1 (dsDNA) DNA 1: GCCCGAGTAGGTTACGAGGCGGCATTCAGTGCGAATGCGATTGACAGCGTAGAATGAAGG DNA 2: CCTTCATTCTACGCTGTCAATCGCATTCGCACTGAATGCCGCCTCGTAACCTACTCGGGC | -0.27 PBM z-score against 500 random probes | –
NRC3_wobSeed102_DR4_T18G_o1 (dsDNA) DNA 1: GCCCTAGCAGGCCAATCGGGGTCACTCAAGGCTTGAGCGATTGACAGCGTAGAATGAAGG DNA 2: CCTTCATTCTACGCTGTCAATCGCTCAAGCCTTGAGTGACCCCGATTGGCCTGCTAGGGC | 4.94 PBM z-score against 500 random probes | binding signal (RARb:RXRa): 3.05 PBM z-score against 500 random probes
NRC3_wobSeed88_DR3_C13T_o1 (dsDNA) DNA 1: GCTAGCCTAGGTTATGCGGGCCAGTATAGTGTCGGCGCGATTGACAGCGTAGAATGAAGG DNA 2: CCTTCATTCTACGCTGTCAATCGCGCCGACACTATACTGGCCCGCATAACCTAGGCTAGC | 0.05 PBM z-score against 500 random probes | binding signal (PPARa:RXRa): 0.03 PBM z-score against 500 random probes
NRC3_random_hg19_285_o1 (dsDNA) DNA 1: GCTTACTCTGTTGCACTTTGGAAGAAACAAATGTAAGCGATTGACAGCGTAGAATGAAGG DNA 2: CCTTCATTCTACGCTGTCAATCGCTTACATTTGTTTCTTCCAAAGTGCAACAGAGTAAGC | 0.3 PBM z-score against 500 random probes | binding signal (RARb:RXRa): 0.15 PBM z-score against 500 random probes
NRC3_random_hg19_82_o1 (dsDNA) DNA 1: GCCATACAGACTCTAGTCATTTCAAATGTTCTTGCTGCGATTGACAGCGTAGAATGAAGG DNA 2: CCTTCATTCTACGCTGTCAATCGCAGCAAGAACATTTGAAATGACTAGAGTCTGTATGGC | 0.12 PBM z-score against 500 random probes | –
NRC3_random_hg19_446_o1 (dsDNA) DNA 1: GCACTGAACAACCTGATCCTGAATGACTACAGGGTAGCGATTGACAGCGTAGAATGAAGG DNA 2: CCTTCATTCTACGCTGTCAATCGCTACCCTGTAGTCATTCAGGATCAGGTTGTTCAGTGC | 0.09 PBM z-score against 500 random probes | –
NRC3_random_hg19_407_o1 (dsDNA) DNA 1: GCGAGACATGAGATTTGGTTCTAGCTACACTCTTCAGCGATTGACAGCGTAGAATGAAGG DNA 2: CCTTCATTCTACGCTGTCAATCGCTGAAGAGTGTAGCTAGAACCAAATCTCATGTCTCGC | -0.37 PBM z-score against 500 random probes | –
NRC3_random_hg19_48_o1 (dsDNA) DNA 1: GCTAGTCCAGCTGGCTGGAGACTCATGGAAGAACAGGCGATTGACAGCGTAGAATGAAGG DNA 2: CCTTCATTCTACGCTGTCAATCGCCTGTTCTTCCATGAGTCTCCAGCCAGCTGGACTAGC | -1.43 PBM z-score against 500 random probes | –
NRC3_random_hg19_26_o1 (dsDNA) DNA 1: GCACTCAATACACCAAAGCACATCCTCATCAGACTCGCGATTGACAGCGTAGAATGAAGG DNA 2: CCTTCATTCTACGCTGTCAATCGCGAGTCTGATGAGGATGTGCTTTGGTGTATTGAGTGC | 0.33 PBM z-score against 500 random probes | –
NRC3_wobSeed121_DR5_G18T_o1 (dsDNA) DNA 1: GCCAAACTAGGTCACCGTAAGGTCAAAGTCCGCATGGCGATTGACAGCGTAGAATGAAGG DNA 2: CCTTCATTCTACGCTGTCAATCGCCATGCGGACTTTGACCTTACGGTGACCTAGTTTGGC | 5.33 PBM z-score against 500 random probes | binding signal (PPARa:RXRa): 6.59 PBM z-score against 500 random probes
NRC3_random_hg19_166_o1 (dsDNA) DNA 1: GCAATGACATGATCATAGCTCACTGCAGCCTTGAATGCGATTGACAGCGTAGAATGAAGG DNA 2: CCTTCATTCTACGCTGTCAATCGCATTCAAGGCTGCAGTGAGCTATGATCATGTCATTGC | -0.62 PBM z-score against 500 random probes | –
NRC3_random_hg19_78_o1 (dsDNA) DNA 1: GCTATGACTGGTTACACTGGAAACCTAGAATGAACAGCGATTGACAGCGTAGAATGAAGG DNA 2: CCTTCATTCTACGCTGTCAATCGCTGTTCATTCTAGGTTTCCAGTGTAACCAGTCATAGC | 0.42 PBM z-score against 500 random probes | –
NRC3_random_hg19_98_o1 (dsDNA) DNA 1: GCGCCAGGCTGGTCTCGACCTCCTGACTTTGTGATCGCGATTGACAGCGTAGAATGAAGG DNA 2: CCTTCATTCTACGCTGTCAATCGCGATCACAAAGTCAGGAGGTCGAGACCAGCCTGGCGC | -0.14 PBM z-score against 500 random probes | –
NRC3_random_hg19_288_o1 (dsDNA) DNA 1: GCCCTGGTTCAAGCGATTCTCCTGCCTCAGCCTCCTGCGATTGACAGCGTAGAATGAAGG DNA 2: CCTTCATTCTACGCTGTCAATCGCAGGAGGCTGAGGCAGGAGAATCGCTTGAACCAGGGC | 0.5 PBM z-score against 500 random probes | –
NRC3_wobSeed25_DR1_T25C_o1 (dsDNA) DNA 1: GCCAAACTAGGTCAAAGGTCAAAGCCGAGCCAACCAGCGATTGACAGCGTAGAATGAAGG DNA 2: CCTTCATTCTACGCTGTCAATCGCTGGTTGGCTCGGCTTTGACCTTTGACCTAGTTTGGC | 5.19 PBM z-score against 500 random probes | binding signal (PPARa:RXRa): 8.1 PBM z-score against 500 random probes
NRC3_wobSeed25_DR1_C26A_o1 (dsDNA) DNA 1: GCCAAACTAGGTCAAAGGTCAAAGTAGAGCCAACCAGCGATTGACAGCGTAGAATGAAGG DNA 2: CCTTCATTCTACGCTGTCAATCGCTGGTTGGCTCTACTTTGACCTTTGACCTAGTTTGGC | 5.12 PBM z-score against 500 random probes | binding signal (RARb:RXRa): 6.19 PBM z-score against 500 random probes
NRC3_random_hg19_259_o1 (dsDNA) DNA 1: GCCCTGAGTCAGTAGAACCAGCTGAGAGATTGGATTGCGATTGACAGCGTAGAATGAAGG DNA 2: CCTTCATTCTACGCTGTCAATCGCAATCCAATCTCTCAGCTGGTTCTACTGACTCAGGGC | -0.45 PBM z-score against 500 random probes | –
NRC3_wobSeed106_DR4_G14A_o1 (dsDNA) DNA 1: GCCTCGAAAGGTCAGTTGAGGTGAGTATACGGATAAGCGATTGACAGCGTAGAATGAAGG DNA 2: CCTTCATTCTACGCTGTCAATCGCTTATCCGTATACTCACCTCAACTGACCTTTCGAGGC | 5.33 PBM z-score against 500 random probes | binding signal (RARb:RXRa): 5.79 PBM z-score against 500 random probes
NRC3_random_hg19_264_o1 (dsDNA) DNA 1: GCTCATCAGTCTAATGATGCTGTTGGTCCAGGGAGCGCGATTGACAGCGTAGAATGAAGG DNA 2: CCTTCATTCTACGCTGTCAATCGCGCTCCCTGGACCAACAGCATCATTAGACTGATGAGC | -0.53 PBM z-score against 500 random probes | –
NRC3_wobSeed42_DR1_G9T_o1 (dsDNA) DNA 1: GCTATACATGGTCAAAGGCCAGAGTACGAATGTCGAGCGATTGACAGCGTAGAATGAAGG DNA 2: CCTTCATTCTACGCTGTCAATCGCTCGACATTCGTACTCTGGCCTTTGACCATGTATAGC | 0.08 PBM z-score against 500 random probes | –
